Reference: IntAct's records for PubMed 20148946

Molecular target: T1, unkl_human UNKL (UniProt Q9H9P5)
T1 sequence: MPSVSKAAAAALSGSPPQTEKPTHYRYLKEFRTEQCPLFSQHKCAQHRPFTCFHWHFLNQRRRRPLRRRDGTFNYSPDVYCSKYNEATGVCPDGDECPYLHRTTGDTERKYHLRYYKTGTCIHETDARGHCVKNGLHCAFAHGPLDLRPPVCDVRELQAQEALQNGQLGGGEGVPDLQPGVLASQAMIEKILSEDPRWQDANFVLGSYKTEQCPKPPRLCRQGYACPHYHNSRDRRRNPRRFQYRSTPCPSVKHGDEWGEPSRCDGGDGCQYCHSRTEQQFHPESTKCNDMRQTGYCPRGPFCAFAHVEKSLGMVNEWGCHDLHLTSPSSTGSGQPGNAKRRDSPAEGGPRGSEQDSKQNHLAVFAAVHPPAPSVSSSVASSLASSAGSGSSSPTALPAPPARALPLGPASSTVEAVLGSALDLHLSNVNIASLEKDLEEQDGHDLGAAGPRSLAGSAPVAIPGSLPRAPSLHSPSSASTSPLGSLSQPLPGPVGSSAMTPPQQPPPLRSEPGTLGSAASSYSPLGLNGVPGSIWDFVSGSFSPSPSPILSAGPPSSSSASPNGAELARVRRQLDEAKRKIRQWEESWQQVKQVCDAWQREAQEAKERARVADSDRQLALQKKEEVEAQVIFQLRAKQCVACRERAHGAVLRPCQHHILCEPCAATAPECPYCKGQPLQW

Ras-related C3 botulinum toxin substrate 1 (Homo sapiens) (from UniProt P63000) Q61L
effect of a mutation on the interaction: increasing interaction
